Test results from publication PMC3826083.

Experiments:
mCherry-R125I = experiment: fluorescence polarisation
mCherry-R125I/T127V = experiment: fluorescence polarisation

mCherry-R125I
Kd (mCherry-R125I): 35 µM

mCherry-R125I/T127V
Kd (mCherry-R125I/T127V): 0.091 µM
